According to PMC6928210 (Scientific Reports, 2019):
Several values for one entry are separate records, joined by “and”; a condition that tells them apart may be missing. Identical values can stand only once. Like-named read-outs stand apart in the source and are kept apart here.

Assays:
AtSHMT2 [1] = target: T1, AtSHMT2 (Arabidopsis thaliana, UniProt Q94C74); assay: Competitive binding assay vs 5-formyl-THF, quinonoid intermediate absorbance; details: AtSHMT2, 20 mM KPi pH 8.0, 30 °C, glycine 10 mM, 5-formyl-THF varied; read-out: Ki (inhibition constant, antifolate binding to the enzyme-glycine complex)
T1 construct: the protein N-truncated at E41; The open reading frames coding for AtSHMT2 41–517 fragment; His6 (N, cleaved yes); made in house; host or cells: E. coli BL21 Gold
T1 sequence (Q94C74 41-517): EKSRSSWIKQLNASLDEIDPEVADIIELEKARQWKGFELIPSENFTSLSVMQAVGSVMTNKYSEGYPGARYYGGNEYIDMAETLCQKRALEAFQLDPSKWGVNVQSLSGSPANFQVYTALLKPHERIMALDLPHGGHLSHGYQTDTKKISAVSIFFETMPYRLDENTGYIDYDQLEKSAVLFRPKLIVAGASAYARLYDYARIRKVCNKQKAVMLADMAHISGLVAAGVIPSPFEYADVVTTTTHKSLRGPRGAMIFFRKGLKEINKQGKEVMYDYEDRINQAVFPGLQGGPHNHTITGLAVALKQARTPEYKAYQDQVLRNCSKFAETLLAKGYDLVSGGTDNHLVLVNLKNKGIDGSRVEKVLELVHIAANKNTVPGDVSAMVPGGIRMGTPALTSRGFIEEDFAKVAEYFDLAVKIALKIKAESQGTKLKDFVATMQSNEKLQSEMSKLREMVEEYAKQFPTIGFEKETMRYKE
Text: (§1) In this system, the obtained Ki values refer to binding of the antifolates to the enzyme-glycine complex.
(§2) Secondary plots of slopes as functions of antifolate concentrations were obtained from fitting of inhibition data (Fig. S2). Intercept on the X-axis gives an estimate of the inhibition constant (Ki) related to antifolate binding to the enzyme-glycine complex. Since it is known that the mitochondrial matrix has an alkaline pH (pH 8[68]) as compared to the cytosol (pH 7.3[68]), inhibition measurements were performed in 20 mM KPi buffer at pH 8.0 for AtSHMT2 and pH 7.3 for AtSHMT4 at 30 °C. […] Units of slopes are μM.
(§3) Inhibition assays were performed using 5 μM enzyme solutions. All assays were carried out at 30 °C in 20 mM KPi buffer at either pH 8.0, in the case of AtSHMT2, or pH 7.3 in the case of AtSHMT4. Methotrexate was dissolved in pure DMSO.
(§4) The intermediate develops when both ligands bind to SHMT, forming an enzyme-glycine-folate ternary complex. […] Data were analyzed to obtain estimates of the dissociation constant (Kd) and αKd (in the presence of a saturating concentration of the other ligand) for both ligands, as reported in[31].
(§5) The obtained data were used to produce double reciprocal plots and fitted to linear equations. […] Fitting of data was performed with the software PRISM (GraphPad, La Jolla, CA, USA). All experiments were performed in triplicate using a Hewlett-Packard 8453 diode-array spectrophotometer (Agilent Technologies, Santa Clara, CA).
(§6) Absorbance at 505 nm (AtSHMT2) or 500 nm (AtSHMT4) from the quinonoid intermediate formed
(§7) measured at equilibrium. Right-side charts show double reciprocal plots of data shown in left-side panels ﬁtted to a […]

AtSHMT4 [2] = target: T2, AtSHMT4 (Arabidopsis thaliana, UniProt O23254); assay: as above; details: AtSHMT4, 20 mM KPi pH 7.3, 30 °C, glycine 10 mM, 5-formyl-THF varied; read-out: Ki (inhibition constant, antifolate binding to the enzyme-glycine complex)
T2 construct: The open reading frames coding for AtSHMT2 41–517 fragment and full-length AtSHMT4 were amplified; His6 (N, cleaved yes); made in house; host or cells: E. coli BL21 Gold
T2 sequence (O23254 1-471): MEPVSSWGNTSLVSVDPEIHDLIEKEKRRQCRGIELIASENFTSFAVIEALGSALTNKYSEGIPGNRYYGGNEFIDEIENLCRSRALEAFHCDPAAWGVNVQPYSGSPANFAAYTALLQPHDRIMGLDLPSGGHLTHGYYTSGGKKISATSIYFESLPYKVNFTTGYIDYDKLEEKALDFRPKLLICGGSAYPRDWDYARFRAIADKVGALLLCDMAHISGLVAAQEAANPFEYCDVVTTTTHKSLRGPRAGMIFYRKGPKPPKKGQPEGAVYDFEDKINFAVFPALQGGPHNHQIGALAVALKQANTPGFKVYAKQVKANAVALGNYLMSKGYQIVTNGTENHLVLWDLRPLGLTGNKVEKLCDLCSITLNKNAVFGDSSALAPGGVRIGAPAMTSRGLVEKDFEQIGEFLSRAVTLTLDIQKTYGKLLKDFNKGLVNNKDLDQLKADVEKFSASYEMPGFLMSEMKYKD
Text: as §1, §2, §3, §4, §5, §6, §7

hcSHMT = details: cited from earlier work
[3] = design: method as in PMID 9067281; details: PTX (or its polyglutamylated forms); cited from earlier work
AtSHMT2 [4] = target: T1, AtSHMT2; assay: SHMT forward reaction (serine + THF), coupled assay, initial velocity; type: biochemical; details: read-out: KM THF; AtSHMT2, pH 6.5, 30 mM L-serine fixed, 30 °C
Description: (§8) Figure 2 Dependence of AtSHMT2 and AtSHMT4 activity on pH. The initial velocity of the SHMT forward reaction was measured at different pH values with AtSHMT2 and AtSHMT4 (0.2 μM) using a fixed concentration of one substrate while varying the concentration of the other substrate. The fixed L-serine concentration was saturating. […] All experimental points are the average ± standard deviation of three independent measurements. […] Reactions were carried out at 30 °C.
(§9) Activities were measured at different pH values (6.0, 7.0, 8.5 and 9.5). For pH 6.0, 7.0 and 8.5, the assays were performed in 20 mM phosphate buffer. Measurements at pH 9.5 were performed in a mixture of 50 mM MES, 50 mM HEPES, and 50 mM CHES and the final pH was adjusted with KOH.

AtSHMT4 [5] = target: T2, AtSHMT4; assay: as above; type: biochemical; details: read-out: KM THF, 30 °C
Description: as §8, §9

AtSHMT3 = tested on: AtSHMT3; design: method as in PMID 20518745; details: read-out: KM for THF; cited from earlier work
[6] = substrate: N[C@@H](CO)C(=O)O; assay: purified protein, by the assay type; type: biochemical, Arabidopsis thaliana; details: 30 °C
[7] = other: AtSHMT4, pH 6.5, 30 µM THF fixed, pH 6.5
[8] = other: AtSHMT4, pH 7, 30 µM THF fixed, pH 7.0
[9] = other: AtSHMT4, pH 8, 50 µM THF fixed, pH 8.0
[10] = other: AtSHMT4, pH 8.5, 80 µM THF fixed, pH 8.5
[11] = other: AtSHMT4, pH 9.5, 100 µM THF fixed, pH 9.5
[12] = other: AtSHMT2, pH 6.5, 180 µM THF fixed, pH 6.5
[13] = other: AtSHMT2, pH 7, 180 µM THF fixed, pH 7.0
[14] = other: AtSHMT2, pH 8, 180 µM THF fixed, pH 8.0
[15] = other: AtSHMT2, pH 8.5, 180 µM THF fixed, pH 8.5
[16] = other: AtSHMT2, pH 9.5, 180 µM THF fixed, pH 9.5

Molecule: Nc1nc2[nH]cc(CCc3ccc(C(=O)N[C@@H](CCC(=O)O)C(=O)O)cc3)c2c(=O)[nH]1 [PTX, pemetrexed]
- Ki (AtSHMT2 [1]): 119 µM
- Ki (AtSHMT4 [2]): 95 µM and 95.1 µM
- Ki (hcSHMT; ref Daidone et al.[26], read-out: KiPTX (inhibition constant)): 19.1 µM
- Intracellular concentration [3]: 10 to 30 µM

Molecule: tetrahydrofolate [THF]
- Km (AtSHMT2 [4]): 83.6 ± 8.1 µM
- Km (AtSHMT4 [5]; AtSHMT4, pH 6.5, 30 mM L-serine fixed): 7.87 ± 1.62 µM
- Km (AtSHMT4 [5]; AtSHMT4, pH 7, 30 mM L-serine fixed): 15 ± 1.87 µM
- Km (AtSHMT4 [5]; AtSHMT4, pH 8, 30 mM L-serine fixed): 23.8 ± 3.99 µM
- Km (AtSHMT4 [5]; AtSHMT4, pH 8.5, 30 mM L-serine fixed): 33.8 ± 5.63 µM
- Km (AtSHMT3): 218 µM

Molecule: CN(Cc1cnc2nc(N)nc(N)c2n1)c1ccc(C(=O)N[C@@H](CCC(=O)O)C(=O)O)cc1 [MTX, methotrexate]
- Ki (AtSHMT2 [1]): 270 µM
- Ki (AtSHMT4 [2]): 179 µM
- Ki (hcSHMT; ref Paiardini et al.[45], read-out: KiMTX (apparent inhibition constant)): 201 µM

B1: AtSHMT4 (Arabidopsis thaliana) (protein)
chain: MEPVSSWGNTSLVSVDPEIHDLIEKEKRRQCRGIELIASENFTSFAVIEALGSALTNKYSEGIPGNRYYGGNEFIDEIENLCRSRALEAFHCDPAAWGVNVQPYSGSPANFAAYTALLQPHDRIMGLDLPSGGHLTHGYYTSGGKKISATSIYFESLPYKVNFTTGYIDYDKLEEKALDFRPKLLICGGSAYPRDWDYARFRAIADKVGALLLCDMAHISGLVAAQEAANPFEYCDVVTTTTHKSLRGPRAGMIFYRKGPKPPKKGQPEGAVYDFEDKINFAVFPALQGGPHNHQIGALAVALKQANTPGFKVYAKQVKANAVALGNYLMSKGYQIVTNGTENHLVLWDLRPLGLTGNKVEKLCDLCSITLNKNAVFGDSSALAPGGVRIGAPAMTSRGLVEKDFEQIGEFLSRAVTLTLDIQKTYGKLLKDFNKGLVNNKDLDQLKADVEKFSASYEMPGFLMSEMKYKD
notes: The open reading frames coding for AtSHMT2 41–517 fragment and full-length AtSHMT4 were amplified; His6 (N, cleaved yes); made in house; host or cells: E. coli BL21 Gold
- Km [6, 7]: 2560 ± 260 µM
- kcat/Km [6, 7]: 4630 M⁻¹ s⁻¹
- Km [6, 8]: 540 ± 50 µM
- kcat/Km [6, 8]: 30000 M⁻¹ s⁻¹
- Km [6, 9]: 300 ± 20 µM
- kcat/Km [6, 9]: 57900 M⁻¹ s⁻¹
- Km [6, 10]: 240 ± 20 µM
- kcat/Km [6, 10]: 81500 M⁻¹ s⁻¹
- Km [6, 11]: 200 ± 20 µM
- kcat/Km [6, 11]: 90800 M⁻¹ s⁻¹

B2: AtSHMT2 (Arabidopsis thaliana) (protein)
chain: EKSRSSWIKQLNASLDEIDPEVADIIELEKARQWKGFELIPSENFTSLSVMQAVGSVMTNKYSEGYPGARYYGGNEYIDMAETLCQKRALEAFQLDPSKWGVNVQSLSGSPANFQVYTALLKPHERIMALDLPHGGHLSHGYQTDTKKISAVSIFFETMPYRLDENTGYIDYDQLEKSAVLFRPKLIVAGASAYARLYDYARIRKVCNKQKAVMLADMAHISGLVAAGVIPSPFEYADVVTTTTHKSLRGPRGAMIFFRKGLKEINKQGKEVMYDYEDRINQAVFPGLQGGPHNHTITGLAVALKQARTPEYKAYQDQVLRNCSKFAETLLAKGYDLVSGGTDNHLVLVNLKNKGIDGSRVEKVLELVHIAANKNTVPGDVSAMVPGGIRMGTPALTSRGFIEEDFAKVAEYFDLAVKIALKIKAESQGTKLKDFVATMQSNEKLQSEMSKLREMVEEYAKQFPTIGFEKETMRYKE
notes: the protein N-truncated at E41; The open reading frames coding for AtSHMT2 41–517 fragment; His6 (N, cleaved yes); made in house; host or cells: E. coli BL21 Gold
- Km [6, 12]: 11650 ± 2030 µM
- kcat/Km [6, 12]: 450 M⁻¹ s⁻¹
- Km [6, 13]: 8050 ± 1360 µM
- kcat/Km [6, 13]: 1010 M⁻¹ s⁻¹
- Km [6, 14]: 2860 ± 300 µM
- kcat/Km [6, 14]: 4530 M⁻¹ s⁻¹
- Km [6, 15]: 1780 ± 220 µM
- kcat/Km [6, 15]: 11600 M⁻¹ s⁻¹
- Km [6, 16]: 710 ± 90 µM
- kcat/Km [6, 16]: 30700 M⁻¹ s⁻¹
